# Laboratory results published in the nanobody polyreactivity screen of Harvey et al. (2022).
# Experiment: yeast display, Sf9 membrane polyspecificity reagent, FACS + sequencing; frameworks hold sequencing errors
# In short: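 Galactose-induced (36–48 hours) yeast carrying a synthetic nanobody display library were exposed to 10% biotinylated, detergent-solubilized Sf9 membrane reagent at 4 °C for 1 hour. FACS followed streptavidin microbead enrichment, using low and high (top ~1%) gates for expression (anti-HA) and reagent binding (streptavidin). Colony PCR, MiSeq 2 × 250 sequencing and CDR-length filtering followed. Labels for polyreactivity reflect the gate of origin.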
row,Sequence,polyreactivity (PSR sort gate)
1,QVQHVESGGGLVQARGSLRLRCAASGFIFRANAMGWYRHAPGKERELVATISRSGGSTSYADSVKGLFTISRDNAKNTVYLQMNSLKPEDSAVYYCAARKYTLRRKSRYGYWGQGTQVTVSS,high polyreactivity
2,QVQLVESGGGLVQAGGSLRLSCAASGSNFVGYVMGRYRQAPGKERELVARIRWGGGRTYYADSVKGRFTISRDNAKNRVYLQMKSLKAEDTAVYYCAAVWRTRWAPGYYWGQGTQVTGSS,high polyreactivity
3,QVQLVESGGGLDQARGSLRLSCAASGSIFWKYAMGWYRQAPWKERELVAAISRSSSTTYYADSVKGRFTISRDNAKNTVYLQMNSLKPEDTAVYYCAAYYRSRVSDDYWGQGTQVTVSS,high polyreactivity
4,QVQLVESGGGLVQAGGSLRLSCAASGYTFYRNAMGWYRQAPGKERELVASLRDDGSTYYADSEKGRFTISRDNAKNTVYLHMNSLKPEDTAVYYCNSDYPYIWHKGARYWHENDYWGQGTQVTVSS,low polyreactivity
5,QVQLVESGGGLVQAGGSLRLSCAASGLTFDHYTMGWYRQATGLERELVAAITKNGGSTYYADSVKGRFTISRDNAKNTVYLQMISLKPEDTAVYYCNVGPRRVDRSRAASSDYDYWGQGTQVTVSS,high polyreactivity
6,QVQLVESGGGLVQAGGSLRLSCAASGFTFWYYAMGWYRQAPGKERELVATITSGDSTKYADSVKGSFTISRDNAKNTVFLQMNSLNPEDNAVYYCAAEKVLPFIGYDYWGQGTQVTVSS,low polyreactivity
7,QVQLVESGGGLVQAGGSLRLSCAASGSIFVYYTMGWYRQAPGKVRELVATITFRGNTYYADSVKGRFTISRDNAKNTVYLQMNSLKPEDTAVSYCAATRYGHRYYYRPYEYWGQGTQVTVSS,high polyreactivity
8,QVQLVESGGGLVQAGGSLRLSCAASGYTLRYYAMGWYRQAPGKERELVAAITYSGGSTYYADSVKGRFTISRDHAKNTVYLQMNSLKPEDTAVYYCAADYRAPLDYWGQGTQVTVSS,low polyreactivity
9,QVQLVESGGGLVQAGGSLRLSCAASGRIFYANSMGWYRQAPGKERELVASISARGGYTYYADSVKGRFTISRDTAKNTVYLQMNSLKPEDTAVYYCAAEYLAVSGYWYAYWGQGTQVTVSS,high polyreactivity
10,QVQLVESGGGLVQAGGSLRLSCAASGSIFSYYAMGWYRQAPGKERELVAAISQSGGSTYYADSVKGRFTISRDNAKNTVYLQMNSLKPEDTAVYYCNAVARHTRSKYGSWGQGTQVTVSS,high polyreactivity
11,QVQLVESGGGLVQAGGSLRLSCAASGRTFYGYAMGWYRQAPGKERELVAGITSRVGSTYYADSVKGRFTISRDNAKNNVYLQMNSLKPEDTAVYYCAADRYAVRSYHYDYWGQGTQVTVSS,low polyreactivity
12,PVQLVESGGGLVQAGGSLRLSCAASGSNFEYYTMGWYRQAPGKERELVATISRSADRTYYADSVKGRFTISRDYAKNTVYLQMNILKPEDTAVYDCAKLYPRTTQWIYDYWGQGTQVTVSS,high polyreactivity
13,QVQLVESGGGLVQAGGSLRISCAASGYTFASYTMGWYRQAPGKERELVATISRGGGRTYYADSVKGRFTISRDNAKNTVYLQLNSLKPEDTAVYYCARPSTFFTGYRQAHFDYWGQGTQVTVSS,high polyreactivity
14,QVQLVESVGGLVQAGGSLRLSCAASGSTFYIYAMGWYRQAPGKERELVADINNSDSTYYADSVKGRFTISRDNAKITVYLQMYSLKPEDTAVYYCAAYDYYIGAYSYGGSDYDYWGQGTQVTVSS,low polyreactivity
15,QVQLVESGGGLVQAGGSLRLSCAASGSTFTVYAMGWYRQAPGKERELVAAITVSTDSTYYADSVKGRFTISRDNAKNTVYLQMNSLKPEDTAVYYCAADSARSGYGRYDSWGQGTQVTVSS,low polyreactivity
16,QVQLVESGGGLVQAGGSLRLSCAASGLIFYRYAMGWYRQAPGKERELVAAISARGSSTYYADSVKGRFTISRDNAKNTVYLQMNSLKPEDTAVYYCAAGATGTSYYGGDYWGQGTQVTVSS,high polyreactivity
17,QVQLVESGGGLDQARGSLRLSCAASGRTFWTNVMGWYRQAPGKERELVAAITSSTDSTYYADSVKGRFTISLDNAKNTVYLQMNSLKPEDTAVYYCATVVRLYRGRYRYDYWGQGTQVTVSS,high polyreactivity
18,QVQLVESGGGLVQAGGSLRLSCAASGLTFIYYAMGWYRQARGKERELVAAISRSGGSTYYADSVKGRFTISRDNAKNTVYLQMNSLKPEDTAVYYCAADGTKYSGRVTGDYWGQGTQVTVSS,high polyreactivity
19,QVQLVESGGGLVQARGSLRLSCAASGRTFGGYARGWYRQAPGKERELVATISKRAGSTYYADSVKGRFTISRDHAKNTVYLQMNSLKPEDTAVYYCAKVKSARYQEYEYWGQGTQVTVSS,high polyreactivity
20,QVQLVESGGGLVQAGGSLRLSCAASGSTFDPYAMGWYRQAPGKESELVAAISRNGGRTYYADSVKGRFTISRDNAKNTVYLQMNSLTPEDTAVYYCAARSTGYGSTGRLLWYGHWGQGTQGTVSS,high polyreactivity
21,QVQLVESGGGLVQAGGSLRLSCAASGRILQPNAMGWYRQAPGKERELVAGISRSGGGTYYADSVKWRFTISRDNAKNTVYLQMNTLKPEDTAVYYCAAYRYGYGYGYWGQGTQLTVSS,high polyreactivity
22,QVQLVESGGGLVQAGGSLRLSCAASGYIWYYAMGWSRQAPGKERELVAAISWGGGSTYYADSVKGRFTISRDNAKNTVYLQMNSLKPEDTAVYYCATRCIPDDNARDYWGQGTQVTVSS,low polyreactivity

row,Sequence,polyreactivity (PSR sort gate)
1,QVQLVESGGGLVQAGGSLRLSCAASGRIFNWYRMGWYRQAPGKERELVAAISRGGGRTYYADSVKGRFTISRDNAKNTVYLQMNSLKPEDTAVYYCNAVDASHAGPVGGAFRYDYWGQGTQVTVSS,high polyreactivity
2,QVKLVESGGGLVQAGGSLRLSCAASGSIFVGYAIVWYRQAPGKERELVAAISTRGGSTYYADSVKGRFTISRENAKNTVYLKMNSLTPEDTAVYYCAADYLDSTYGYVYGWDDYWGQGTQVTVSS,low polyreactivity
3,QVQLVESGGGLVQAGGSLRLSCAASGRISLGYAMGWYRQAPGKERELVAAITRGGTTSYAHSVKGRFTISRDNAKNTVYLQMNSLKPEDTAVYYCAVPAGYFGKWTYYYWGQGTQVTVSS,high polyreactivity
4,QVQLEESGGGLVQAGGSLRLSCAATGILRLNAIGWYRHAPGKEREFVATISRSGGITYYADSVKGRFTISRDNAKNTVYLQMNSLKPEDTAVYYCAKGGYSLYGYWGQGTQVTVSS,high polyreactivity
5,QVQLVESGGGLVQAGGSLRLSCAASGGIFSAYVMGWSRQAPGKERELVAAITRRGGSTYYADSVKGRFTISRDNAKNTVYLQMNSLKPEDTAVYYCAALLRGQDRTMDYWGQGTQVTVSS,high polyreactivity
6,QVQLVESGGALVQAGASLRLSCAASGRTFPLYAMGWYRQAPGKEMELVAAISARGSSTYYADSVKGRFTISRDNAKNTVYLQMNSLKAEDNAVYYCAAKRSYPYGSGYWGQGSQVTVSS,high polyreactivity
7,QVQLVESGVGLVQAGGSLRLSCAPSGRTFFWYAMGWYRPAPGKERELVAAIRGAGRTNYADSVKGRFTISRDNAKYTVYLHMNSLKPEDTAVYYCAAQHYPWRRYDYWGLGTQVTVSS,high polyreactivity
8,QVQLVESGVGLVQAGGSLRLSCAASGITFTGYAMGWYRQAPGKERELVAVISETGGSTYADSVKGRFTISRDNAKNTVYLQMNSLKPEDTAVYYCATRLWWPYSTAWAKMDYWGQGTQVTVSS,low polyreactivity
9,QVQLVESGGGLVQAGCSLRLSCAASGRTDFYTMGWYRQAPGKEMELVAAITSTGRTYYADSVKGRFTISRDNAKNTVYLKMNSLKPEDTAVYFCAAVWRYKGLLLPSYYYWGQGTQVTVSS,high polyreactivity
10,QVQLVESGGGLVQAGGSLRLSCASSGRIIRRNAMGWYRQAPGKERELVASISQGGSTYYADSVKGRFTISRDNAKNTVYLQMNSLKPEDTAVYYCAATLSYYVGVRYDYWGQGTQVTVSS,high polyreactivity
11,QVQLVESGGGFVQAGGSLLVSCAASGFTFRYSAMGWYRQAPGKERELVAAIDQNSGRTYYADSGKGRFTISRDNAKNTVYLQMNSLKPEDTAVYYCNVGYPKVPAGSYDYWGQGTQVTVSS,high polyreactivity
12,QVQLVESGGGLVQAGGSLRLICAASGSTFVVNAMGWYRQAPGKERELVAAIRNSGSTTYADSVKGRFTISRDNAKNTVYLQMNSLKPEDTAVYYCATDFSATVTAVQINPYDYWGQGTQVTVSS,low polyreactivity
13,QVQLVESGGGLVQAGGSLRLSCAASGRIFPKYAMGWYRHAPGTERELVGAISGSSGSTYYADSVKGRFTISRDNAKNTVYLQMNSLKPDDTAVYYCAARRYRISKTSGYCGQGTQVTVSS,high polyreactivity
14,QVQLVESGGGLVQAGGSLRLSCAASGFIFASYAMGWYRQAPGKERELVAAITQSRGITYYADSVKGRFTISRDNAKNTVYLQMNSLKPEDTAGYYCNTPLLKRTSRGRERNYWGQGTQVTVSS,low polyreactivity
15,QVQLVESGGGLVQAGGSLRLSCAASGFTFQGYVMGWYRQAPGKERELVARITNDGSTTYADSVKGRFTISRDNAKNTVYLQMNSLKPEDTAVYYCDRPYRFWRYYGMYYWGQGTQVTVSS,high polyreactivity
16,QVQLVESGGGLVQAGGSLRLSCAASGSIFWPYAMGWYRPAPGKERELVATISWNGGSTYYADSVKGRFTISRDNAKNTVYLQMNSLKPEDTAVYYCAAEVYFNQYGGMDYWGQGTQVTVSS,low polyreactivity
17,QVQLLESGGGLVQAGGSLRLSCAASGNLFHVNAMGWYRQAPGKERELVASISRRGGSTNYADSVKGRFTISRANAKNTVYLQMNSLKPEDTAVYYCATRLTSAVGRYLYDFGYWGQGTQVTVSS,high polyreactivity
18,QVQLVESGGGLVQAGGSLRLSCAASGRIFTWYAKGWYRQAPGKERELVAAISWSGGRTYYADSVKGRFTISRDNAKNTVYLQMNSLKPEDTAVYYCNAVPSVRWRYDYWGQGTQVTVSS,high polyreactivity
19,QVQLVESGGGLVQAGGSLRLSCAASGSTFTLYAMGWYRQAPGKERELVATITGSGGSTNYADSVKGRFTISRDNAKNTVYLQMNSLKPEDTAVYYCAAYNPFYYKFDYWGQGTQVTVSS,high polyreactivity
20,QVQLVESGGGLVQAGGSLRLSCAASGFTFAYYVMGWYIQAPGKETELVAAISISGARTYYAESVKGRFTISRDNSKNTVYLQMNRLKPEDTAVYYCAADRRTDGHDYWGLGTQVTVSS,high polyreactivity
21,QVQLVESGGGLVQAGGSLRLSCAASGITIYEYAMGWYRQAPGKERELVAAITSGGTTNYADSVKGRFTISRDNAKNTVYLQMNSLKPEDTAVYYCAKDGGEGYDYWGQGTQVTVSS,low polyreactivity
